From patent US6878520 (MERCK, dated 2005)

B1: c-ART-b (ligand)
chain: AQMGLALQDREPRSSRRCVRLHESCLGQQVPCCDPCATCYCRFFNAFCYCRKLGTAMNPCSRTLVPRGSGSELGTKLGPEQKLISEEDLNSAVDHHHHHH
notes: Secreted into the culture medium of transfected COS-7 cells and used as concentrated medium; also called ART polypeptide
B2: full-length human ART protein (ligand)
chain: AQMGLAPMEGIRRPDQALLPELPGLGLRAPLKKTNAEQAEEDLLQEAQALAEVLDLQDREPRSSRRCVRLHESCLGQQVPCCDPCATCYCRFFNAFCYCRKLGTAMNPCSRTLVPRGSGSELGTKLGPEQKLISEEDLNSAVDHHHHHH
notes: also called full length ART; full-length ART protein

Tests used:
[1] = target: T1, human melanocortin-4 receptor (human, UniProt P32245 1-332); test: inhibition of 125I-NDP-α-MSH binding to membranes of cells expressing human MC4R
T1 construct: whole, on cells; Assayed as membranes prepared from stably expressing cells; also called hMC4R; MC4R
Description: (§1) Binding assays were done in the same manner as described in Fong et al., 1997, Biochem. Biophys. Res. Comm. 237:629–631. Binding assays were carried out using membranes prepared from L cells or CHO cells stably expressing human MC3R, MC4R or MC5R. […] The above mixture in binding buffer (50 mM Tris, 2 mM CaCl_2, 1 mM MgCl_2, 5 mM KCl, pH 7.2) was incubated at room temperature for 2 hours, followed by filtration through GFC paper. The bound ligand was quantitated in a γ counter. IC$50$ values were calculated as previously described (Fong et al., 1996, Mol. Pharmacol. 50:1605–1611).

[2] = target: T2, human melanocortin-3 receptor (human, UniProt P41968 1-323); test: inhibition of 125I-NDP-α-MSH binding to membranes of cells expressing human MC3R
T2 construct: whole, on cells; Assayed as membranes prepared from stably expressing cells; also called hMC3R; MC3R
Description: as §1

T2 sequence (P41968 whole entry): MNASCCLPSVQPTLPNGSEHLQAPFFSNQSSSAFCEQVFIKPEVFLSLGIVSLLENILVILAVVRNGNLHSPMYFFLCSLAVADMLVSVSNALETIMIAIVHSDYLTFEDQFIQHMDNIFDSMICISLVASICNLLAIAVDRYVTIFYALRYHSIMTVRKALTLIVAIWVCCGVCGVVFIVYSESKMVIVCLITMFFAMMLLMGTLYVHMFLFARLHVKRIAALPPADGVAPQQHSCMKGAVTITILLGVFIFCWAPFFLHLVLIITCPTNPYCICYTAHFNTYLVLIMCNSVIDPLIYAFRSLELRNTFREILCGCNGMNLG
T1 sequence (P32245 whole entry): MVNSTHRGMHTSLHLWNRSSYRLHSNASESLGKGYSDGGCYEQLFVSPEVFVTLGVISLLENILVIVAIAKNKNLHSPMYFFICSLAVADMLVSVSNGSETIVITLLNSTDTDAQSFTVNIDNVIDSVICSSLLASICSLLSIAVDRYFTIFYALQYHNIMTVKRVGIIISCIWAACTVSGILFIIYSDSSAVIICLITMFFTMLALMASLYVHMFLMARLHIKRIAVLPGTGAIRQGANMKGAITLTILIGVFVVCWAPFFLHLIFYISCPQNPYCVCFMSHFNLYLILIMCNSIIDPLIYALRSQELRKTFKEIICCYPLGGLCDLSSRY

Binder	IC50 [1] [nM]	IC50 [2] [nM]
B1	1.4	1.9
B2	0.5	1
